Experimental data published in US20250206837A1.

Molecular target: Recombinant His-tagged mouse CD36.ECD protein (Sino Biological) (mouse) (UniProt Q08857)
Experiment: ELISA, coated mouse CD36.ECD (FIG. 1D)

Chain of Recombinant His-tagged mouse CD36.ECD protein (Sino Biological) (mouse) (Q08857 30-439 limits assumed): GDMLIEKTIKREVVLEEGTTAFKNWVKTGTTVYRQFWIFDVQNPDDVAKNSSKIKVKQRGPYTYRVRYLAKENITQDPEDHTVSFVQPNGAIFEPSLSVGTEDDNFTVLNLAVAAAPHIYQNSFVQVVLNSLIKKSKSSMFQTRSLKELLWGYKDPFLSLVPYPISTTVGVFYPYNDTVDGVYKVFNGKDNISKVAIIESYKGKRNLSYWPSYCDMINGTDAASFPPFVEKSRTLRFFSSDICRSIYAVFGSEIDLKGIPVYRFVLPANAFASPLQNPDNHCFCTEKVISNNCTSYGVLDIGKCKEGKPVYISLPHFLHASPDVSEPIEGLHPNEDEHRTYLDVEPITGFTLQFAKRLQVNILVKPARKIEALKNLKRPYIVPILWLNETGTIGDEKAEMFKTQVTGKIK

EC50: 930 pM
Substance: D2712 (clone CRF D-2712, BD Biosciences, US) (antibody)
